Measured values published in paper PMC4573856 (Genes & Development, 2015).
Read-outs that look alike come from different tables or passages of the source.

T1: Dm eIF4E (residues 69-248) used for ITC (Drosophila melanogaster, UniProt P48598-2 69-248)
T1 sequence (looked up): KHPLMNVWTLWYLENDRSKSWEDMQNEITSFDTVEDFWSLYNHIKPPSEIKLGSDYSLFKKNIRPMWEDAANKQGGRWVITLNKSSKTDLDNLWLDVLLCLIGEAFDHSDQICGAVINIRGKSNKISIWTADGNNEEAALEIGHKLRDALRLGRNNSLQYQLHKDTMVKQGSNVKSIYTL

T2: His6-tagged Dm eIF4E (residues 69-248) (Drosophila melanogaster, UniProt P48598-2 69-248)
T2 sequence (looked up): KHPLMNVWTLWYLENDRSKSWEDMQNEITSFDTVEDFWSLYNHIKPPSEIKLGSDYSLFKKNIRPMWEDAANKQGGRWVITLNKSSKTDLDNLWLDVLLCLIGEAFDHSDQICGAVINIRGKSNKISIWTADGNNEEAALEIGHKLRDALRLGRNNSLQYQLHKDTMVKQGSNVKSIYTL


Columns and labels:
[1] = target: T1, Dm eIF4E (residues 69-248) used for ITC; assay: ITC
[2] = target: T2, His6-tagged Dm eIF4E (residues 69-248); assay: pull-down
[3] = target: T2, His6-tagged Dm eIF4E (residues 69-248); assay: pull-down; remark: listed apart in the source

| Binder | Kd [1] [nM] | binding result [3] | other results |
| --- | --- | --- | --- |
| SRVSYDIEHLLYYSMSPHSWTLPTDWQKMQETAPSILRNKDLQD (domain or fragment, Drosophila melanogaster, UniProt Q9VR35 577-620, looked up) [GB1-stabilized Dm Mxt peptide C + NC (residues 577-620)] | 5 | – | – |
| SRVSYDREHLLYYRMSPHSWTLPTDWQKMQETAPSILRNKDLQD (domain or fragment, Drosophila melanogaster, UniProt Q9VR35 577-620, looked up) [GB1-tagged Dm Mxt C + NC IS-RR mutant peptide] | – | – | binding result [2]: binds |
| GB1-stabilized Dm Mxt peptide (residues 577-640) (domain or fragment, Drosophila melanogaster, UniProt Q9VR35 577-640, looked up, also: 15N-labelled, GB1-stabilized (GB1 fusion)) SRVSYDIEHLLYYSMSPHSWTLPTDWQKMQETAPSILRNKDLQDESQRFDGDKYLASIKTAAKR | 0.5 | – | – |

Further lines, with some results ahead:

| Kd [1] [nM] | binding result [3] | Binder | other results |
| --- | --- | --- | --- |
| – | binds | SRVSYDREHLLYYRMSPHSWTLPTDWQKMQETAPSILRNKDLQD (domain or fragment, Drosophila melanogaster, UniProt Q9VR35 577-620, looked up) [MBP-tagged Dm Mxt fragment 577-620 IS-RR mutant C-terminally fused to GB1] | – |
| – | binds | Dm eIF4G (residues 578-650) C-terminally fused to GB1 (domain or fragment, Drosophila melanogaster, UniProt O61380 578-650, looked up) PETTLNDKQDSTDLKVKVSAKISSIINYNEGQWSPNNPSGKKQYDREQLLQLREVKASRIQPEVKNVSILPQP | – |
